PMC3057972, “BAG3 Directly Interacts with Mutated alphaB-Crystallin to Suppress Its Aggregation and Toxicity” (PLoS ONE, 2011)

B1: purified αB-crystallin wild type (from E. coli) (natural protein, human, UniProt P02511 1-175, looked up)
chain: MDIAIHHPWIRRPFFPFHSPSRLFDQFFGEHLLESDLFPTSTSLSPFYLRPPSFLRAPSWFDTGLSEMRLEKDRFSVNLDVKHFSPEELKVKVLGDVIEVHGKHEERQDEHGFISREFHRKYRIPADVDPLTITSSLSSDGVLTVNGPRKQVSGPERTIPITREEKPAVTAAPKK
notes: αB-crystallin, human, wild type; probably made as a GST fusion from pGEX-6P-1 with the GST removed (it is pulled down by GST-BAG3 on GSH beads); also called WT; source: E. coli, purified

Legend:
Conditions in all cases: both partners purified
GST-BAG3 [1] = molecular target: T1, GST-BAG3 (human, UniProt O95817 1-575); test: pull-down; competition: purified GST-BAG3 incubated with purified αB-crystallin in the presence or absence of peptides aa 87–101 or 200–213 of BAG3; precipitated with GSH beads; immunoblot with anti-αB-crystallin antibody
T1 construct: BAG3, human, cDNA subcloned into pGEX-6P-1; also called GST-fused BAG3; GST protein fused to BAG3; source: E. coli BL21, purified (glutathione-Sepharose beads)

[2] = molecular target: T2, purified BAG3 (from E. coli) (human, UniProt O95817 1-575); test: pull-down; purified GST-fused αB-crystallin (WT or R120G) mixed with purified BAG3, pulled down with glutathione sepharose beads; immunoblot with anti-BAG3 antibody
T2 construct: BAG3, human; probably made as GST-BAG3 from pGEX-6P-1 with the GST removed (it is pulled down by GST-αB-crystallin on glutathione beads); source: E. coli BL21, purified

GST-BAG3 [3] = molecular target: T1, GST-BAG3; test: pull-down; purified GST-BAG3 incubated with purified αB-crystallin in immunoprecipitation buffer, precipitated with glutathione-Sepharose beads; immunoblot with anti-αB-crystallin antibody
[4] = molecular target: B1; test: pull-down; competition: purified GST-BAG3 incubated with purified αB-crystallin in the presence or absence of peptides aa 87–101 or 200–213 of BAG3; precipitated with GSH beads; immunoblot with anti-αB-crystallin antibody

T1 sequence (O95817 whole entry, the tested form may be a part): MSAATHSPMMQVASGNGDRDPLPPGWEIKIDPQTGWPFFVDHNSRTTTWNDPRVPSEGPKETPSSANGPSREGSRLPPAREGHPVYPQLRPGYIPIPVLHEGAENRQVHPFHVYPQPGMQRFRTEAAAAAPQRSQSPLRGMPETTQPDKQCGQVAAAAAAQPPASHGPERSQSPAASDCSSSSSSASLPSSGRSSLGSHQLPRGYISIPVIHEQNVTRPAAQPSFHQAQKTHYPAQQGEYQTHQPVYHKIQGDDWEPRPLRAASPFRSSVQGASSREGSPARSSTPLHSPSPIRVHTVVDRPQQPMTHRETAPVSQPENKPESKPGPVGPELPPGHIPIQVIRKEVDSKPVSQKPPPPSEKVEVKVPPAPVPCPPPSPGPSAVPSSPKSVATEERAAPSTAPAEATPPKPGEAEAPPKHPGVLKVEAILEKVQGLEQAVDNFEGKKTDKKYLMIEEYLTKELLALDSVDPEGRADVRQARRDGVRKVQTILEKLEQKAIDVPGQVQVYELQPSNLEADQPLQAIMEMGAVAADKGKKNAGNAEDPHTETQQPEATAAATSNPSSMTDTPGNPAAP
T2 sequence (O95817 whole entry, the tested form may be a part): as above

B1: binds (GST-BAG3 [1]).

B2: GST-αB-crystallin wild type (natural protein, human, UniProt P02511 1-175, looked up)
chain: MDIAIHHPWIRRPFFPFHSPSRLFDQFFGEHLLESDLFPTSTSLSPFYLRPPSFLRAPSWFDTGLSEMRLEKDRFSVNLDVKHFSPEELKVKVLGDVIEVHGKHEERQDEHGFISREFHRKYRIPADVDPLTITSSLSSDGVLTVNGPRKQVSGPERTIPITREEKPAVTAAPKK
notes: αB-crystallin, human, wild type, cDNA subcloned into pGEX-6P-1; also called GST-fused αB-crystallin wild type (WT); GST fusion αB-crystallin; source: E. coli BL21, purified (glutathione-Sepharose beads)
B2: binds [2].

B3: GST-αB-crystallin R120G (natural protein, human, UniProt P02511 1-175, looked up)
chain: MDIAIHHPWIRRPFFPFHSPSRLFDQFFGEHLLESDLFPTSTSLSPFYLRPPSFLRAPSWFDTGLSEMRLEKDRFSVNLDVKHFSPEELKVKVLGDVIEVHGKHEERQDEHGFISREFHGKYRIPADVDPLTITSSLSSDGVLTVNGPRKQVSGPERTIPITREEKPAVTAAPKK
notes: αB-crystallin, human, mutant R120G found in myofibrillar myopathy patients, cDNA subcloned into pGEX-6P-1; also called GST R120GαB-crystallin; GST-fused αB-crystallin mutant (R120G); source: E. coli BL21, purified (glutathione-Sepharose beads)
B3: binds [2].

B4: purified αB-crystallin R120G (from E. coli) (natural protein, human, UniProt P02511 1-175, looked up)
chain: MDIAIHHPWIRRPFFPFHSPSRLFDQFFGEHLLESDLFPTSTSLSPFYLRPPSFLRAPSWFDTGLSEMRLEKDRFSVNLDVKHFSPEELKVKVLGDVIEVHGKHEERQDEHGFISREFHGKYRIPADVDPLTITSSLSSDGVLTVNGPRKQVSGPERTIPITREEKPAVTAAPKK
notes: αB-crystallin, human, mutant R120G found in myofibrillar myopathy patients; probably made as a GST fusion from pGEX-6P-1 with the GST removed; also called R120G αB-crystallin; mutant (R120G); source: E. coli, purified
B4: binds (GST-BAG3 [3]).

B5: peptide corresponding to aa 87–101 of BAG3 (peptide, UniProt O95817 87-101, looked up)
peptide: PQLRPGYIPIPVLHE
notes: BAG3, human, amino acids 87–101; source: peptide, 'generated'
B5: binds [4].

B6: peptide corresponding to aa 200–213 of BAG3 (peptide, UniProt O95817 200-213, looked up)
peptide: QLPRGYISIPVIHE
notes: BAG3, human, amino acids 200–213; source: peptide, 'generated'
B6: binds [4].
